US20110294144

Experiments:
[1] = target: endogenous tau of rat primary nerve cells, P19332
[2] = target: wild-type human tau overexpressed in H4-tau cells

Sequence of endogenous tau of rat primary nerve cells, P19332 (P19332 2-752): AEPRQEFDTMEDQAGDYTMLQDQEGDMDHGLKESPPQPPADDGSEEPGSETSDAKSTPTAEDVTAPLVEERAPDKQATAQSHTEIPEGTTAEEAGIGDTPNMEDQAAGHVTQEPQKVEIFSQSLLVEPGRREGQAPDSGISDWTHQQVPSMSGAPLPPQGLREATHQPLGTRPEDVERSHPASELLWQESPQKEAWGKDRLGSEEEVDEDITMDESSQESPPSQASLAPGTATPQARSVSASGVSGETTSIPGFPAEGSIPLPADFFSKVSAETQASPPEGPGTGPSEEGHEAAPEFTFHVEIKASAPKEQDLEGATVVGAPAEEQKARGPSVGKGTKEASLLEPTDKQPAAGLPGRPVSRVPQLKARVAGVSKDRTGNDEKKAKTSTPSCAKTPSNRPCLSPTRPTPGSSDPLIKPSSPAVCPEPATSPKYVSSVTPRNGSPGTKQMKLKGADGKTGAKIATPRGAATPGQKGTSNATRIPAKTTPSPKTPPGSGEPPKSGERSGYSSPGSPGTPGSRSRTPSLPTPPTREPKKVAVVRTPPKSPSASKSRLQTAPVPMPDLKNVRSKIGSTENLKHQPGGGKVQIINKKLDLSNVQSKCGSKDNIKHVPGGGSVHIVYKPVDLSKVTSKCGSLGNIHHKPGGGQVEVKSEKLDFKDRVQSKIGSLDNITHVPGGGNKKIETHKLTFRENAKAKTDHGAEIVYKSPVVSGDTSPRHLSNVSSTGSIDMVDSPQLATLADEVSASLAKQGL

B1: human PRKX (hPRKXkai), overexpressed from pPRKXkai plasmid or PRKX overexpression lentivirus (protein)
chain: MEAPGLAQAAAAESDSRKVAEETPDGAPALCPSPEALSPEPPVYSLQDFDTLATVGTGTFGRVHLVKEKTAKHFFALKVMSIPDVIRLKQEQHVHNEKSVLKEVSHPFLIRLFWTWHDERFLYMLMEYVPGGELFSYLRNRGRFSSTTGLFYSAEIICAIEYLHSKEIVYRDLKPENILLDRDGHIKLTDFGFAKKLVDRTWTLCGTPEYLAPEVIQSKGHGRAVDWWALGILIFEMLSGFPPFFDDNPFGIYQKILAGKIDFPRHLDFHVKDLIKKLLVVDRTRRLGNMKNGANDVKHHRWFRSVDWEAVPQRKLKPPIVPKIAGDGDTSNFETYPENDWDTAAPVPQKDLEIFKNF
- amount of S214 phosphorylated tau, ELISA, PRKX lentivirus MOI 1 [1]: 3.0-fold, 4.2-fold and 6.3-fold enhanced amounts of S214 phosphorylated tau were found in the cells infected with PRKX overexpression lentivirus at MOI-1, 3 and 6, respectively
- amount of S214 phosphorylated tau, ELISA, PRKX lentivirus MOI 3 [1]: 3.0-fold, 4.2-fold and 6.3-fold enhanced amounts of S214 phosphorylated tau were found in the cells infected with PRKX overexpression lentivirus at MOI-1, 3 and 6, respectively
- amount of S214 phosphorylated tau, ELISA, PRKX lentivirus MOI 6 [1]: 3.0-fold, 4.2-fold and 6.3-fold enhanced amounts of S214 phosphorylated tau were found in the cells infected with PRKX overexpression lentivirus at MOI-1, 3 and 6, respectively
- S214 phosphorylation of tau, Western blot, 0.02 µg PRKX expression plasmid [2]: 1.3-fold, 1.9-fold and 2.9-fold enhanced S214 phosphorylation was found in the cells incorporating 0.02 µg, 0.06 µg and 0.2 µg of PRKX expression plasmid, respectively
- S214 phosphorylation of tau, Western blot, 0.06 µg PRKX expression plasmid [2]: 1.3-fold, 1.9-fold and 2.9-fold enhanced S214 phosphorylation was found in the cells incorporating 0.02 µg, 0.06 µg and 0.2 µg of PRKX expression plasmid, respectively
- S214 phosphorylation of tau, Western blot, 0.2 µg PRKX expression plasmid [2]: 1.3-fold, 1.9-fold and 2.9-fold enhanced S214 phosphorylation was found in the cells incorporating 0.02 µg, 0.06 µg and 0.2 µg of PRKX expression plasmid, respectively
- amount of S214 phosphorylated tau in the total tau, ELISA, 0.02 µg PRKX expression plasmid [2]: 2.5-fold, 3.4-fold and 5.8-fold enhanced S214 phosphorylation was found in the cells incorporating 0.02 µg, 0.06 µg and 0.2 µg of PRKX expression plasmid, respectively
- amount of S214 phosphorylated tau in the total tau, ELISA, 0.06 µg PRKX expression plasmid [2]: 2.5-fold, 3.4-fold and 5.8-fold enhanced S214 phosphorylation was found in the cells incorporating 0.02 µg, 0.06 µg and 0.2 µg of PRKX expression plasmid, respectively
- amount of S214 phosphorylated tau in the total tau, ELISA, 0.2 µg PRKX expression plasmid [2]: 2.5-fold, 3.4-fold and 5.8-fold enhanced S214 phosphorylation was found in the cells incorporating 0.02 µg, 0.06 µg and 0.2 µg of PRKX expression plasmid, respectively

B2: inactive PRKX protein without kinase activity (D172A), overexpressed from pD172A plasmid or D172A overexpression lentivirus (protein)
chain: MEAPGLAQAAAAESDSRKVAEETPDGAPALCPSPEALSPEPPVYSLQDFDTLATVGTGTFGRVHLVKEKTAKHFFALKVMSIPDVIRLKQEQHVHNEKSVLKEVSHPFLIRLFWTWHDERFLYMLMEYVPGGELFSYLRNRGRFSSTTGLFYSAEIICAIEYLHSKEIVYRALKPENILLDRDGHIKLTDFGFAKKLVDRTWTLCGTPEYLAPEVIQSKGHGRAVDWWALGILIFEMLSGFPPFFDDNPFGIYQKILAGKIDFPRHLDFHVKDLIKKLLVVDRTRRLGNMKNGANDVKHHRWFRSVDWEAVPQRKLKPPIVPKIAGDGDTSNFETYPENDWDTAAPVPQKDLEIFKNF
- amount of S214 phosphorylated tau, ELISA, D172A lentivirus MOI 1, 6 [1]: D172A overexpression lentivirus and lacZ overexpression lentivirus did not show an enhanced amount of S214 phosphorylated tau
- S214 phosphorylation of tau, Western blot and ELISA [2]: enhanced S214 phosphorylation was not found in pD172A tranfected cell
